# From patent US10780117
# B1: Bruton's tyrosine kinase (Btk) in J774 mouse macrophage cells (protein)
# chain: AAVILESIFLKRSQQKKKTSPLNFKKRLFLLTVHKLSYYEYDFERGRRGSKKGSIDVEKITCVETVIPEKNPPPERQIPRRGEESSEMEQISIIERFPYPFQVVYDEGPLYVFSPTEELRKRWIHQLKNVIRYNSDLVQKYHPCFWIDGQYLCCSQTAKNAMGCQILENRNGSLKPGSSHRKTKKPLPPTPEEDQILKKPLPPEPTAAPISTTELKKVVALYDYMPMNANDLQLRKGEEYFILEESNLPWWRARDKNGQEGYIPSNYITEAEDSIEMYEWYSKHMTRSQAEQLLKQEGKEGGFIVRDSSKAGKYTVSVFAKSTGEPQGVIRHYVVCSTPQSQYYLAEKHLFSTIPELINYHQHNSAGLISRLKYPVSKQNKNAPSTAGLGYGSWEIDPKDLTFLKELGTGQFGVVKYGKWRGQYDVAIKMIREGSMSEDEFIEEAKVMMNLSHEKLVQLYGVCTKQRPIFIITEYMANGCLLNYLREMRHRFQTQQLLEMCKDVCEAMEYLESKQFLHRDLAARNCLVNDQGVVKVSDFGLSRYVLDDEYTSSVGSKFPVRWSPPEVLMYSKFSSKSDIWAFGVLMWEIYSLGKMPYERFTNSETAEHIAQGLRLYRPHLASERVYTIMYSCWHEKADERPSFKILLSNILDVMDEES
# Target: Myc-tagged CRT expressed in J774 cells
# Sequence (P27797 18-417): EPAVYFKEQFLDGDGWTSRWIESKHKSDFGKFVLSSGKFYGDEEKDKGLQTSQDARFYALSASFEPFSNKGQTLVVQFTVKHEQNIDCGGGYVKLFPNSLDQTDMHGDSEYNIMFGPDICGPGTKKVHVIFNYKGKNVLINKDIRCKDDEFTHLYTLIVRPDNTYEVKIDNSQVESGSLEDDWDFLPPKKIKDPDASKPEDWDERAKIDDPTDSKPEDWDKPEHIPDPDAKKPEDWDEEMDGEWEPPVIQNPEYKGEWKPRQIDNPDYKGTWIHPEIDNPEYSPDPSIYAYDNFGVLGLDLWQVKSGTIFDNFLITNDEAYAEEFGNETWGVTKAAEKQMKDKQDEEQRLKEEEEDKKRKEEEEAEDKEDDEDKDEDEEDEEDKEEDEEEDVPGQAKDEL
protein,measurement,value
B1,tyrosine phosphorylation of immunoprecipitated myc-CRT (immunoblot with anti-phosphotyrosine antibody),Immunoblot showing CRT phosphorylation upon Btk activation
